Tests used:
[1] = biological target: T1, PARP2 FL E286A (human (Homo sapiens), UniProt Q9UGN5 1-583, E286A); assay: fluorescence polarization; mean and SD of 3 listed KDs (22.43, 26.3, 23.94); FP buffer, salt, pH and temperature not given (as in cited ref 17); crystallization: complex purified in 20 mM Hepes pH 7.5, 300 mM NaCl, 0.5 mM TCEP; crystals; details: protein: recombinant; tags: His-tag construct, TEV cleaved; label: fluorescein on internal T8 of strand 2; blunt, 20 bp
[2] = biological target: T2, PARP2 FL Y201F (human (Homo sapiens), UniProt Q9UGN5 1-583, Y201F); assay: fluorescence polarization; mean and SD of 3 listed KDs (93.24, 46.79, 151.2); FP buffer, salt, pH and temperature not given (as in cited ref 17); crystallization: complex purified in 20 mM Hepes pH 7.5, 300 mM NaCl, 0.5 mM TCEP; crystals; details: protein: recombinant; tags: His-tag construct, TEV cleaved; label: fluorescein on internal T8 of strand 2; blunt, 20 bp
T2 sequence (Q9UGN5 whole entry Y201F): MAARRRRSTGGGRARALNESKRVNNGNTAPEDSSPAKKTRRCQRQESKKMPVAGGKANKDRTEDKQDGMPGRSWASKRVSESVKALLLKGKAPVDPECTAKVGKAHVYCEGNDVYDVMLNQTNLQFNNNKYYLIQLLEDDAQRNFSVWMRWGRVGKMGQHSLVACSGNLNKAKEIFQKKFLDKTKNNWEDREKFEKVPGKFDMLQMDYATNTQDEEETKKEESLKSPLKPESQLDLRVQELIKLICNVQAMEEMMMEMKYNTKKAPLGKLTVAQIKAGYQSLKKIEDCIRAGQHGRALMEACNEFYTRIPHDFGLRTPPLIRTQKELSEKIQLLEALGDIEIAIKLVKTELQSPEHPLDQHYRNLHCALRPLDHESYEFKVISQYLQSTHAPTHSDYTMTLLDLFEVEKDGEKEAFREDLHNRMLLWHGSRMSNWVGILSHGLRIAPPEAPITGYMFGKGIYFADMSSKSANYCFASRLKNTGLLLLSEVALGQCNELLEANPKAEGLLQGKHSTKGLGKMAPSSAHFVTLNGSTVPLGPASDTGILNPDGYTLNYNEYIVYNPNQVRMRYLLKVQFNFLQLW

[3] = biological target: T3, PARP2 FL G338A (human (Homo sapiens), UniProt Q9UGN5 1-583, G338A); assay: fluorescence polarization; mean and SD of 3 listed KDs (27.96, 29.72, 25.09); FP buffer, salt, pH and temperature not given (as in cited ref 17); crystallization: complex purified in 20 mM Hepes pH 7.5, 300 mM NaCl, 0.5 mM TCEP; crystals; details: protein: recombinant; tags: His-tag construct, TEV cleaved; label: fluorescein on internal T8 of strand 2; blunt, 20 bp
T3 sequence (Q9UGN5 whole entry G338A): as the sequence (Q9UGN5 whole entry Y201F) above, with F201Y, G338A counted along it

[4] = biological target: T4, PARP2 FL R153A (human (Homo sapiens), UniProt Q9UGN5 1-583, R153A); assay: fluorescence polarization; mean and SD of 3 listed KDs (232.6, 64.05, 161.3); FP buffer, salt, pH and temperature not given (as in cited ref 17); crystallization: complex purified in 20 mM Hepes pH 7.5, 300 mM NaCl, 0.5 mM TCEP; crystals; details: protein: recombinant; tags: His-tag construct, TEV cleaved; label: fluorescein on internal T8 of strand 2; blunt, 20 bp
T4 sequence (Q9UGN5 whole entry R153A): as the sequence (Q9UGN5 whole entry Y201F) above, with R153A, F201Y counted along it

[5] = biological target: T5, PARP2 FL N129A (human (Homo sapiens), UniProt Q9UGN5 1-583, N129A); assay: fluorescence polarization; mean and SD of 3 listed KDs (58.73, 44.74, 72.15); FP buffer, salt, pH and temperature not given (as in cited ref 17); crystallization: complex purified in 20 mM Hepes pH 7.5, 300 mM NaCl, 0.5 mM TCEP; crystals; details: protein: recombinant; tags: His-tag construct, TEV cleaved; label: fluorescein on internal T8 of strand 2; blunt, 20 bp
T5 sequence (Q9UGN5 whole entry N129A): as the sequence (Q9UGN5 whole entry Y201F) above, with N129A, F201Y counted along it

[6] = biological target: T6, PARP2 FL E286R (human (Homo sapiens), UniProt Q9UGN5 1-583, E286R); assay: fluorescence polarization; mean and SD of 3 listed KDs (12.72, 25.07, 16.53); FP buffer, salt, pH and temperature not given (as in cited ref 17); crystallization: complex purified in 20 mM Hepes pH 7.5, 300 mM NaCl, 0.5 mM TCEP; crystals; details: protein: recombinant; tags: His-tag construct, TEV cleaved; label: fluorescein on internal T8 of strand 2; blunt, 20 bp
T6 sequence (Q9UGN5 whole entry E286R): as the sequence (Q9UGN5 whole entry Y201F) above, with F201Y, E286R counted along it

[7] = biological target: T7, PARP2 FL wt (human (Homo sapiens), UniProt Q9UGN5 1-583); assay: fluorescence polarization; mean and SD of 3 listed KDs (28.05, 21.44, 26.07); FP buffer, salt, pH and temperature not given (as in cited ref 17); crystallization: complex purified in 20 mM Hepes pH 7.5, 300 mM NaCl, 0.5 mM TCEP; crystals; details: protein: recombinant; tags: His-tag construct, TEV cleaved; label: fluorescein on internal T8 of strand 2; blunt, 20 bp
T7 sequence (Q9UGN5 whole entry): as the sequence (Q9UGN5 whole entry Y201F) above, with F201Y counted along it

[8] = biological target: T3, PARP2 FL G338A; assay: fluorescence polarization; mean and SD of 3 listed KDs (10.62, 9.907, 6.489); FP buffer, salt, pH and temperature not given (as in cited ref 17); crystallization: complex purified in 20 mM Hepes pH 7.5, 300 mM NaCl, 0.5 mM TCEP; crystals; details: protein: recombinant; tags: His-tag construct, TEV cleaved; label: fluorescein on internal T10; dumbbell of two hairpins (TTTT loops) with one nick
[9] = biological target: T6, PARP2 FL E286R; assay: fluorescence polarization; mean and SD of 3 listed KDs (18.12, 7.571, 5.497); FP buffer, salt, pH and temperature not given (as in cited ref 17); crystallization: complex purified in 20 mM Hepes pH 7.5, 300 mM NaCl, 0.5 mM TCEP; crystals; details: protein: recombinant; tags: His-tag construct, TEV cleaved; label: fluorescein on internal T10; dumbbell of two hairpins (TTTT loops) with one nick
[10] = biological target: T2, PARP2 FL Y201F; assay: fluorescence polarization; mean and SD of 3 listed KDs (46.26, 27.47, 48.04); FP buffer, salt, pH and temperature not given (as in cited ref 17); crystallization: complex purified in 20 mM Hepes pH 7.5, 300 mM NaCl, 0.5 mM TCEP; crystals; details: protein: recombinant; tags: His-tag construct, TEV cleaved; label: fluorescein on internal T10; dumbbell of two hairpins (TTTT loops) with one nick
[11] = biological target: T4, PARP2 FL R153A; assay: fluorescence polarization; mean and SD of 3 listed KDs (20.13, 10.37, 8.203); FP buffer, salt, pH and temperature not given (as in cited ref 17); crystallization: complex purified in 20 mM Hepes pH 7.5, 300 mM NaCl, 0.5 mM TCEP; crystals; details: protein: recombinant; tags: His-tag construct, TEV cleaved; label: fluorescein on internal T10; dumbbell of two hairpins (TTTT loops) with one nick
[12] = biological target: T1, PARP2 FL E286A; assay: fluorescence polarization; mean and SD of 3 listed KDs (10.42, 7.271, 6.234); FP buffer, salt, pH and temperature not given (as in cited ref 17); crystallization: complex purified in 20 mM Hepes pH 7.5, 300 mM NaCl, 0.5 mM TCEP; crystals; details: protein: recombinant; tags: His-tag construct, TEV cleaved; label: fluorescein on internal T10; dumbbell of two hairpins (TTTT loops) with one nick
[13] = biological target: T5, PARP2 FL N129A; assay: fluorescence polarization; mean and SD of 3 listed KDs (14.36, 8.278, 5.785); FP buffer, salt, pH and temperature not given (as in cited ref 17); crystallization: complex purified in 20 mM Hepes pH 7.5, 300 mM NaCl, 0.5 mM TCEP; crystals; details: protein: recombinant; tags: His-tag construct, TEV cleaved; label: fluorescein on internal T10; dumbbell of two hairpins (TTTT loops) with one nick
[14] = biological target: T7, PARP2 FL wt; assay: fluorescence polarization; mean and SD of 3 listed KDs (10.74, 7.933, 8.182); FP buffer, salt, pH and temperature not given (as in cited ref 17); crystallization: complex purified in 20 mM Hepes pH 7.5, 300 mM NaCl, 0.5 mM TCEP; crystals; details: protein: recombinant; tags: His-tag construct, TEV cleaved; label: fluorescein on internal T10; dumbbell of two hairpins (TTTT loops) with one nick
[15] = biological target: PARP2 WGR-RD-ART (human (Homo sapiens), UniProt Q9UGN5 90-583); assay: X-ray crystallography (2.8 A); FP buffer, salt, pH and temperature not given (as in cited ref 17); crystallization: complex purified in 20 mM Hepes pH 7.5, 300 mM NaCl, 0.5 mM TCEP; crystals; details: protein: recombinant; tags: His-tag construct, TEV cleaved; chain copies: 2; blunt, 16 bp; 2 duplex copies in the biological unit
Sequence of PARP2 WGR-RD-ART (Q9UGN5 90-583): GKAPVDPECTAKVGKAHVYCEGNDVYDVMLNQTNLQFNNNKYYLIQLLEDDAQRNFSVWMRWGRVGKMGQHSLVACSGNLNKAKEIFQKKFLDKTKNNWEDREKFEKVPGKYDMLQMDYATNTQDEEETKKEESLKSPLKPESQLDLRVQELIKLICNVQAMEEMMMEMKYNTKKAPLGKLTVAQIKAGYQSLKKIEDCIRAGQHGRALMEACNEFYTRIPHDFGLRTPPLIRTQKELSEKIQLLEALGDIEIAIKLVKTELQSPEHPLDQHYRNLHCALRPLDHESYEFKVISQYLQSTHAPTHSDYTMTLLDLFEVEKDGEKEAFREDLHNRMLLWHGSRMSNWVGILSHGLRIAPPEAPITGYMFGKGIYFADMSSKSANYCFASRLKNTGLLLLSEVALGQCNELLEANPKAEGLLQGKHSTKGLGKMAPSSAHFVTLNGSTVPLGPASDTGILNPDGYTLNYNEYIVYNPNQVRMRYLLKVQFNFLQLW

T1 sequence (Q9UGN5 whole entry E286A): as the sequence (Q9UGN5 whole entry Y201F) above, with F201Y, E286A counted along it

B1: DNA-9 dsDNA (dsDNA)
DNA 1: GACGCAACCCGGAGAACACA
DNA 2: TGTGTTCTCCGGGTTGCGTC
modifications: 5'-phosphate on strand 1
For B1, the Kd [1] was 24.2 ± 1.96 nM, the Kd [2] was 97.1 ± 52.3 nM and the Kd [3] was 27.6 ± 2.34 nM. The Kd [4] was 153 ± 84.6 nM, the Kd [5] was 58.5 ± 13.7 nM and the Kd [6] was 18.1 ± 6.32 nM. It also gave a Kd [7] of 25.2 ± 3.39 nM.

GGAAGTCTTTTGACTTCCTCGAAGCTTTTGCTTCGA (structured_DNA, 5'-phosphate) [DNA-8 nicked dumbbell] was tested, and the Kd [8] was 9.01 ± 2.21 nM, the Kd [9] was 10.4 ± 6.77 nM and the Kd [10] was 40.6 ± 11.4 nM. The Kd [11] was 12.9 ± 6.35 nM, the Kd [12] was 7.98 ± 2.18 nM and the Kd [13] was 9.47 ± 4.41 nM. The Kd [14] was 8.95 ± 1.55 nM.

B2: DNA-1 (dsDNA)
DNA 1: GACGACCCGGAGCACA
DNA 2: TGTGCTCCGGGTCGTC
modifications: 5'-phosphate on strand 1
B2: binds [15].

From article PMC8190142, “Activation of PARP2/ARTD2 by DNA damage induces conformational changes relieving enzyme autoinhibition”
